According to patent US20230218721A1, “INCRETIN ANALOGUE, PREPARATION METHOD THEREFOR, AND USE THEREOF” (ZHEJIANG DOER BIOLOGICS CO., LTD., priority 2020, published 2023):

Biological target: human glucagon-like peptide-1 receptor (GLP-1R) (human (printed as 'Humanized')) (UniProt P43220)
Experiment: cell-based or functional assay

Chain of human glucagon-like peptide-1 receptor (GLP-1R) (human (printed as 'Humanized')) (P43220 24-463): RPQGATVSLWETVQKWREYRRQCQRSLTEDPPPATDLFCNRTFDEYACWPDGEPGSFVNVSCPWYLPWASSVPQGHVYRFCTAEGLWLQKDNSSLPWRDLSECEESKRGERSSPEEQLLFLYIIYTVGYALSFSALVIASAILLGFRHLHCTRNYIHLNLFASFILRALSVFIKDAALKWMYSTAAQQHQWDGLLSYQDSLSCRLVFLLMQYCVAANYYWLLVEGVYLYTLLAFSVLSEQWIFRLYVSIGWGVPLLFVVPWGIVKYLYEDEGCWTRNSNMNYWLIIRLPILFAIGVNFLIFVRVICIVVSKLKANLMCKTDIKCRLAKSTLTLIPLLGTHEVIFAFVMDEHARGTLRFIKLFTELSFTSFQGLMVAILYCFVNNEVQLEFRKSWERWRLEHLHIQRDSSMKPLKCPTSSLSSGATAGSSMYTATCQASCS

Substance: Dulaglutide (Trade name: Trulicity) (Fc fusion)
- GLP-1R agonist activity (EC50, nM): 0.01 nM
